Common to all, as to assay: NMR titration; 1H,15N HSQC of 50 uM 15N-labelled FH domain, unlabelled CR3 added in trans (25 uM or 50 uM); 50 mM NaH2PO4/Na2HPO4 pH 6.5, 0.04% NaN3, 5 mM DTT; 25 C; read-out chemical shift perturbations and line broadening
What all share (settings): both partners purified

In experiment [1] the target is T1, FOXO1 forkhead (FH) domain, amino acids 143 to 270 (human, UniProt Q12778 143-270).
T1 construct: human FOXO1 (Forkhead box O1), Uniprot Q12778, amino acids 143 to 270, forkhead domain; Uniformly 15N-labelled in the NMR titrations; Cloned into the vector pETM11-ZZ-His6 via NcoI/BamHI; also called FOXO1^FH; FOXO1 FH domain; source: E. coli BL21-DE3 Star, purified (Ni-NTA, TEV cleavage, second Ni-NTA, SEC)
T1 sequence (Q12778 143-270): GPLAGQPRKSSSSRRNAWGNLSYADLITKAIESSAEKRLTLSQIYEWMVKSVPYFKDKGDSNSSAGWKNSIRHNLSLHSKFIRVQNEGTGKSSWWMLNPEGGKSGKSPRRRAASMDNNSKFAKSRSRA

Experiment [2] has as its target T2, FOXO3 forkhead (FH) domain, amino acids 141 to 260 (human, UniProt O43524 141-260).
T2 construct: human FOXO3 (Forkhead box O3), Uniprot O43524, amino acids 141 to 260, forkhead domain; Uniformly 15N-labelled in the NMR titrations; Cloned into the vector pETM11-ZZ-His6 via NcoI/BamHI; also called FOXO3^FH; FOXO3 FH domain; source: E. coli BL21-DE3 Star, purified (Ni-NTA, TEV cleavage, second Ni-NTA, SEC)

Experiment [3] concerns the target T3, FOXO6 forkhead (FH) domain, amino acids 71 to 191 (human, UniProt A8MYZ6 71-191).
T3 construct: human FOXO6 (Forkhead box O6), Uniprot A8MYZ6, amino acids 71 to 191, forkhead domain; Uniformly 15N-labelled in the NMR titrations; Cloned into the vector pETM11-ZZ-His6 via NcoI/BamHI; also called FOXO6^FH; FOXO6 FH domain; source: E. coli BL21-DE3 Star, purified (Ni-NTA, TEV cleavage, second Ni-NTA, SEC)

T3 sequence (A8MYZ6 71-191): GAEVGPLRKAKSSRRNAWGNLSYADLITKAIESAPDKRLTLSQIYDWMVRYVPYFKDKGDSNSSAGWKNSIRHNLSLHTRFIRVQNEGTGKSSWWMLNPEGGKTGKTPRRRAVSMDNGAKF
T2 sequence (O43524 141-260): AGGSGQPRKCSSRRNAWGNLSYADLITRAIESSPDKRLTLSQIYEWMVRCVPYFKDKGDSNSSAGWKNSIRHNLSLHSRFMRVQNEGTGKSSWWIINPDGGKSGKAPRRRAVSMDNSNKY

B1: FOXO1 conserved region 3 (CR3, transactivation domain), amino acids 587 to 636 (domain or fragment, human, UniProt Q12778 587-636, looked up)
chain: YGRMGLLHQEKLPSDLDGMFIERLDCDMESIIRNDLMDGDTLDFNFDNVL
notes: human FOXO1, Uniprot Q12778, amino acids 587 to 636, CR3; Unlabelled in the titrations; also called FOXO1^CR3; CR3 of FOXO1; source: E. coli BL21-DE3 Star, lysed in 6 M urea, purified (Ni-NTA, TEV cleavage, second Ni-NTA, SEC)
On to B1, for which the binding result in experiment [1], in experiment [2] and in experiment [3] was “binds” in each case.

B2: FOXO6 conserved region 3 (CR3, transactivation domain), amino acids 418 to 472 (domain or fragment, human, UniProt A8MYZ6 418-472, looked up)
chain: YAAAAAGPLGAAPDRFPADLDLDMFSGSLECDVESIILNDFMDSDEMDFNFDSAL
notes: human FOXO6, Uniprot A8MYZ6, amino acids 418 to 472, CR3; Unlabelled in the titrations; also called FOXO6^CR3; CR3 of FOXO6; source: E. coli BL21-DE3 Star, lysed in 6 M urea, purified (Ni-NTA, TEV cleavage, second Ni-NTA, SEC)
Regarding B2, the binding result in experiment [1] and in experiment [3] was “binds” in each case.

(Values after article PMC9097636, “FOXO transcription factors differ in their dynamics and intra/intermolecular interactions” (Current Research in Structural Biology, 2022).)
